Data on 2 molecules can be found in patent US20250042974A1, “LIPID MEDIATOR CHAPERONE AND USES THEREOF” (The Children's Medical Center Corporation, priority 2021, published 2025).

One assay deals with HUVEC. The assay is described as follows: TEER analysis of endothelial barrier function. The class given is cell-based, human. To be noted: HUVEC; S1P 10-300 nM, A1M 0.8-24 μg/ml; unloaded controls up to 24 μg/ml. The protocol: Transendothelial Electrical Resistance (TEER) was performed on HUVEC as described previously (Swendeman et al, 2017). Essentially, HUVECs were maintained in HUVEC Growth Medium (HGM; M199 medium supplemented with 10% FCS (Corning), 1:100 Pen-Strep (Sigma), 8 mM Glutamine (Sigma), Heparin (Sigma, 100 U, LMW) and Sheep Brain Extract prepared (REF). All cultures were maintained on Fibrobronectin (2 μg/ml) coated plates. For TEER analysis a 96 well ECIS system (96W10idf PET array, Applied BioPhysics) was employed. Wells were coated with Fibronectin (2 μg/ml) resuspended in saline for 30 minutes at room temp. HUVECs were harvested, resuspended in HGM at a cell density of 25-30×10^3 cells/well and allowed to adhere overnight. Prior to analysis, culture media was removed and replaced with M199 media supplemented with Pen-Strep/Glutamine and 1% FCS for 30 minutes. For stimulation studies, either Iloprost (Cayman Biochemicals) or Iloprost loaded onto ApoA1 or ApoA1-ApoM chaperones, or S1P prepared on ApoA1-ApoM or ApoM-Fc chaperones were added to cultures and TEER studies were performed from 3-24 hours.

The next assay concerns ICAM-1. The assay is described as follows: TNF-α-induced ICAM-1 expression in HUVEC (western blot). The class given is cell-based, human. To be noted: 10 min pretreatment, TNFα 10 ng/ml 5 hours, 200 μg/ml. The protocol: HUVECs were plated as described above. After 24 hours cells were shifted to M199 media supplemented with 1% FCS, 8 mM Glutamine, 1× Pen-Strep. After 30 minutes, cells were pretreated for 10 minutes with media, ApoM-Fc-S1P (100 nM S1P), Iloprost (100 nM), ApoA1-ApoM (200 μg/ml), ApoA1-ApoM-Iloprost (200 ug/ml; 100 nM Iloprost) or ApoA1-ApoM-S1P (200 μg/ml 100 nM S1P) or in combinations and subsequently treated with TNF-α (10 ng/ml). After 5 hours, cells were lysed with cell lysis buffer (TBS-T; 20 mM Tris-pH8, 160 mM NaCl, 1% Triton, 1× protease inhibitor cocktail (Sigma)), collected and centrifuged at 20,000×g for 5 minutes at 4° C., extracts were analyzed by 10% SDS-PAGE, transferred to nitrocellulose membrane (Bio-Rad), blocked in 5% milk, and probed with antibodies to ICAM-1 (1:1000, sc-8439, Santa Cruz Biotech) and Actin (1:5000, sc-8432, Santa Cruz Biotech). Blots were developed with appropriate secondary antibodies linked to HRP and visualized by chemiluminescence (Immobilon Western, EMD Millipore) using a ChemiDoc Imaging (Biorad).
(In general: A western blot detects proteins with antibodies after separation by electrophoresis.)

For the next assay, the system named is NF-κB. Kind of assay: TNFα-induced NF-κB luciferase reporter assay in HMEC. Format: cell-based, human. The protocol:
TNFα-dependent NF-κB signaling was determined by using an NFκB-Luciferase based reporter assay system (pGL4.32[luc2P/NF-κB-RE/Hygro]; Promega). A stable NFκB reporter cell line in human microvascular endothelial cells (HMEC-1; ATCC) was created. HMEC were maintained in 10% FCS/Pen-Strep MCDB media supplemented with 2 mM L-Glutamine (Sigma), EGF (2 ng/ml; R&D systems) and Hydrocortisone (1 ng/ml; Sigma). […] The 5×10^5 reporter cells were distributed to 12 well plates and allowed to adhere for 24 hours. Media was replaced with MCDB media supplemented with 1% FCS, L-Glutamine. […] Samples were extracted using cell lysis buffers (Promega), luciferin substrate was added and the plates were measured for […] at 470 nm for 8-15 minutes in a SpectraMax L 96-well plate reader (Molecular Devices).

The next assay concerns Neutrophils. Kind of assay: fMLP-dependent neutrophil ROS generation. Particulars: ApoM-S1P 100 nM S1P, ApoA1-Iloprost 160 nM drug, area under the curve. The class given is cell-based, mouse. The method, then:
Peritoneal Neutrophils were isolated from C57Bl/6 mice after thioglycolate elicitation. Thioglycolate (2 ml of 2% v/v) resuspended in water was administered by intraperitoneal injection. After 4 hours, mice were euthanized and 5 ml of HBSS was injected intraperitoneally, the abdomen was messaged for 1 minute and the peritoneal fluid was removed. The resulting cells were pelleted, RBCs were lysed with ACK buffer, re-pelleted and resuspended in PBS-glucose. Cells were counted, 5×10^5 cells were dispersed into 96 well clear bottom plates containing luminol 100 mM and 10 U/ml of horseradish peroxidase and read for blank background. F-Met-Leu-Phe (fMLP; 10 μM) was added and plates were read on a SpectraMaxL1 (Molecular Devices, San Jose, CA) over 5 minutes as described previously. The area under the curve was calculated by using GraphPad Prism 7 (GraphPad Software, San Diego, CA).

Entries after “also recorded” stand apart in the source; their conditions may differ.

B1: A1M: recombinant fusion protein of Apolipoprotein A1 and Apolipoprotein M with GGGGS linker and 6x His tag (SEQ ID NO: 23) (protein)
chain: MKAVVLAVALVFLTGSQAWHVWQQDEPQSQWDKVKDFANVYVDAVKDSGRDYVSQFESSSLGQQLNLNLLENWDTLGSTVSQLQERLGPLTRDFWDNLEKETDWVRQEMNKDLEEVKQKVQPYLDEFQKKWKEDVELYRQKVAPLGAELQESARQKLQELQGRLSPVAEEFRDRMRTHVDSLRTQLAPHSEQMRESLAQRLAELKSNPTLNEYHTRAKTHLKTLGEKARPALEDLRHSLMPMLETLKTKAQSVIDKASETLTAQTRTRPLGGGGSNQCPEHSQLTALGMDDTETPEPHLGLWYFIAGAASTTEELATFDPVDNIVFNMAAGSAPRQLQLRATIRTKSGVCVPRKWTYRLTEGKGNMELRTEGRPDMKTDLFSSSCPGGIMLKETGQGYQRFLLYNRSPHPPEKCVEEFQSLTSCLDFKAFLVTPRNQEACPLSSKHHHHHH
Consider B1, for which, in the assay on HUVEC, the “enhancement of endothelial barrier function (TEER)” value is on record as “no functional barrier protection; also recorded: did not induce endothelial barrier enhancement”. Further, the “inhibition of TNFα-induced ICAM1 expression” value with ICAM-1 is given as “inhibiting downstream inflammatory ICAM1 expression”. For the same molecule, the “inhibition of TNFα-induced NF-κB activity at higher doses” value in the assay with NF-κB (100-400 μg/ml, bi-phasic dose-response) was “not as inhibitory”. In the assay on NF-κB (low doses 25-50 μg/ml), the “inhibition of TNFα-induced NF-κB activity” value was approximately 25%.

B2: ApoM-S1P: ApoM-bound S1P as named in FIG. 6 results; chaperone form not specified (protein, UniProt O95445 1-188, looked up)
Apolipoprotein M: MFHQIWAALLYFYGIILNSIYQCPEHSQLTTLGVDGKEFPEVHLGQWYFIAGAAPTKEELATFDPVDNIVFNMAAGSAPMQLHLRATIRMKDGLCVPRKWIYHLTEGSTDLRTEGRPDMKTELFSSSCPGGIMLNETGQGYQRFLLYNRSPHPPEKCVEEFKSLTSCLDSKAFLLTPRNQEACELSNN
modifications: bound S1P
notes: chaperone form not specified
Regarding B2, the “inhibition of neutrophil ROS generation” value in the assay on Neutrophils is approximately 42%.
